Reference: publication doi:10.1101/2022.06.02.493408 (bioRxiv, 2022)
Where two headings read alike, the source gives them in different places.

What was measured:
[1] = target: WT BetP reconstituted in amphipol A8-35 (AMP-BetP) (Corynebacterium glutamicum) (UniProt P54582); test: cryo-EM structure
[2] = target: WT BetP reconstituted in amphipol A8-35 (AMP-BetP) (Corynebacterium glutamicum) (UniProt P54582); test: cryo-EM structure; remark: listed apart in the source
crystal structure = target: the molecule itself; test: crystal structure

WT BetP reconstituted in amphipol A8-35 (AMP-BetP), sequence (P54582 whole entry): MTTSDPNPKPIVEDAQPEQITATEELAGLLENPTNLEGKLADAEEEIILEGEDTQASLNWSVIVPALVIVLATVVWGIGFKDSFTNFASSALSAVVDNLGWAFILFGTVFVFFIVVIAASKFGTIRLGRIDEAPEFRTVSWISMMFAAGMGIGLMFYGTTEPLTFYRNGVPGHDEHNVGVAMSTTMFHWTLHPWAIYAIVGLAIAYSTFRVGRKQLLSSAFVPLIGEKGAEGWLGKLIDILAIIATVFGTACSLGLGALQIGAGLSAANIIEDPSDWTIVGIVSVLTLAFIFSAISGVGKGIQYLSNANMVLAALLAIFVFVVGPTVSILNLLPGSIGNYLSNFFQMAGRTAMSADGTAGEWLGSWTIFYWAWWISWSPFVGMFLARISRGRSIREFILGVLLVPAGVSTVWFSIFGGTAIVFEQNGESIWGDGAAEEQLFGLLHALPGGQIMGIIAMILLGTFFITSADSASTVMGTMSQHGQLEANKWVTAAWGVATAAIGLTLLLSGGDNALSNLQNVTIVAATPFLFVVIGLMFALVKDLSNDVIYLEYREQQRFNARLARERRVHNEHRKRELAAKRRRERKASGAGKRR

Molecule	stoichiometry N [1]	stoichiometry N [2]	stoichiometry N (crystal structure)
WT BetP reconstituted in amphipol A8-35 (AMP-BetP) (from UniProt P54582 1-595) (natural protein)	3	3	
BetP-ΔN29/E44E45E46/AAA (crystallization mutant BetP^cryst) (natural protein, Corynebacterium glutamicum, UniProt P54582 30-595, looked up) LENPTNLEGKLADAAAAIILEGEDTQASLNWSVIVPALVIVLATVVWGIGFKDSFTNFASSALSAVVDNLGWAFILFGTVFVFFIVVIAASKFGTIRLGRIDEAPEFRTVSWISMMFAAGMGIGLMFYGTTEPLTFYRNGVPGHDEHNVGVAMSTTMFHWTLHPWAIYAIVGLAIAYSTFRVGRKQLLSSAFVPLIGEKGAEGWLGKLIDILAIIATVFGTACSLGLGALQIGAGLSAANIIEDPSDWTIVGIVSVLTLAFIFSAISGVGKGIQYLSNANMVLAALLAIFVFVVGPTVSILNLLPGSIGNYLSNFFQMAGRTAMSADGTAGEWLGSWTIFYWAWWISWSPFVGMFLARISRGRSIREFILGVLLVPAGVSTVWFSIFGGTAIVFEQNGESIWGDGAAEEQLFGLLHALPGGQIMGIIAMILLGTFFITSADSASTVMGTMSQHGQLEANKWVTAAWGVATAAIGLTLLLSGGDNALSNLQNVTIVAATPFLFVVIGLMFALVKDLSNDVIYLEYREQQRFNARLARERRVHNEHRKRELAAKRRRERKASGAGKRR			3
